Laboratory results taken from publication PMC5225881, “Open and compressed conformations of Francisella tularensis ClpP” (Proteins, 2016).
Several values for one entry are separate records, joined by “and”; a condition that tells them apart may be missing. Identical values can stand only once.

Target: the molecule itself
Assay: native gel or EMSA; purified sample applied to a native gel; conditions not given

B1: Francisella tularensis caseinolytic protease catalytic subunit P (ClpP) (enzyme)
chain: not shown
notes: also called FtClpP; FtClpP:I; copies: 14
- stoichiometry N: 7 and 14
